{"source": "patent US20250090676A1", "about": "(SUTRO BIOPHARMA, published 2025)", "binders": {"B1": {"name": "SRP1848-C04 (antibody, V domains shown)", "VH": "EVQLVESGGGLVQPGGSLRLSCAASGFNIRHYSIHWVRQAPGKGLEWVGEIYPGPGNTDYADSVKGRFTISADTSKNTAYLQMNSLRAEDTAVYYCARGSLSWRAGYGYYLDYWGQGTLVTVSS", "VL": "not shown", "notes": "HC variant paired with trastuzumab LC, cell-free expressed, HIS- and FLAG-tagged; also called Antibody 20"}, "B2": {"name": "SRP1848-E01 (antibody, V domains shown)", "VH": "EVQLVESGGGLVQPGGSLRLSCAASGFNITNKYIHWVRQAPGKGLEWVGGITPFDGFTDYADSVKGRFTISADTSKNTAYLQMNSLRAEDTAVYYCARGSWSWPAGYGYYQDYWGQGTLVTVSS", "VL": "not shown", "notes": "HC variant paired with trastuzumab LC, cell-free expressed, HIS- and FLAG-tagged; also called Antibody 31"}, "B3": {"name": "SRP1848-D09 (antibody, V domains shown)", "VH": "B2 VH with T30S, K32Y, T52S, F54N, F57Y, P104R, A105H, Q111L", "VL": "not shown", "notes": "HC variant paired with trastuzumab LC, cell-free expressed, HIS- and FLAG-tagged; also called Antibody 29"}, "B4": {"name": "SRP1848-C05 (antibody, V domains shown)", "VH": "B1 VH with H31K, E50D, Y52F, G54I, P55D, N57I, T58N, L101W, R104K", "VL": "not shown", "notes": "HC variant paired with trastuzumab LC, cell-free expressed, HIS- and FLAG-tagged; also called Antibody 21"}, "B5": {"name": "SRP1848-D02 (antibody, V domains shown)", "VH": "B2 VH with T30S, N31H, K32N, F54Q, F57Y, S85R, S100A, P104R, Q111L", "VL": "not shown", "notes": "HC variant paired with trastuzumab LC, cell-free expressed, HIS- and FLAG-tagged; also called Antibody 24"}, "B6": {"name": "SRP1848-D07 (antibody, V domains shown)", "VH": "EVQLVESGGGLVQPGGSLRLSCAASGFNISKYYIHWVRQAPGKGLEWVGGISPNDGYTDYADSVKGRFAISADTSKNTAYLQMNSLRAEDTAVYYCARGFWAWRSGYGYYLDYWGQGTLVTVSS", "VL": "not shown", "notes": "HC variant paired with trastuzumab LC, cell-free expressed, HIS- and FLAG-tagged; also called Antibody 28"}, "B7": {"name": "SRP1848-C07 (antibody, V domains shown)", "VH": "B2 VH with T30R, N31K, K32Y, Y33S, G50D, T52F, F54I, F57I, V64M", "VL": "not shown", "notes": "HC variant paired with trastuzumab LC, cell-free expressed, HIS- and FLAG-tagged; also called Antibody 22"}, "B8": {"name": "SRP1848-D04 (antibody, V domains shown)", "VH": "B1 VH with R30S, G54R, P55D, N57I, R87S, S100Y, L101W, S102F, A105S", "VL": "not shown", "notes": "HC variant paired with trastuzumab LC, cell-free expressed, HIS- and FLAG-tagged; also called Antibody 26"}, "B9": {"name": "SRP1848-C10 (antibody, V domains shown)", "VH": "B2 VH with T30R, N31T, K32Y, T52S, F54I, F57Y, Q111L", "VL": "not shown", "notes": "HC variant paired with trastuzumab LC, cell-free expressed, HIS- and FLAG-tagged; also called Antibody 23"}, "B10": {"name": "SRP1848-D10 (antibody, V domains shown)", "VH": "B6 VH with K31R, Y32N, Y33S, G50W, Y57T, A69T, T74G, F100A, A102S, L111I", "VL": "not shown", "notes": "HC variant paired with trastuzumab LC, cell-free expressed, HIS- and FLAG-tagged; also called Antibody 30"}, "B11": {"name": "SRP1848-D05 (antibody, V domains shown)", "VH": "B6 VH with K31I, Y32S, N54I, A69T, F100S, A102S, S105A", "VL": "not shown", "notes": "HC variant paired with trastuzumab LC, cell-free expressed, HIS- and FLAG-tagged; also called Antibody 27"}}, "note": "Where a chain is given by its changes, count along the chain named."}
{"biological_target": "T1, cynomolgus monkey folate receptor alpha (cynomolgus monkey, UniProt P15328 25-234 (human entry))", "T1 construct": "Expressed on the surface of stably transfected CHO cells; also called cyno FolR1; CHO-cyno FolR1", "T1 sequence (P15328 other isoform, or with tags, fused parts or gaps limits assumed)": "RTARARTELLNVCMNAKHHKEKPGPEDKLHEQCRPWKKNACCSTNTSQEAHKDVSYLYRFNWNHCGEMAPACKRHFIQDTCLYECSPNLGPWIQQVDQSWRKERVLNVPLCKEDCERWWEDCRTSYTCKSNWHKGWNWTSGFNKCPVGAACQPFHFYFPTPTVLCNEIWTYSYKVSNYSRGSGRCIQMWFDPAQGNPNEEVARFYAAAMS", "assay": "FACS, CHO-cFOLR1 cells", "units": {"Bmax (MFI)": "MFI", "Kd": "nM"}, "method": "(§1) CHO cells were transfected to stably express human (CHO-hFOLR1), cynomolgus (CHO-cFOLR1), or mouse (CHO-mFOLR1) target molecule FOLR1 on the cell surface. Parental CHO cells were used as a negative control to determine background binding levels. Parental CHO and stably transfected CHO-hFOLR1, CHO-cFOLR1, and CHO-mFOLR1 cells were cultured in Ham's F-12: high glucose DMEM (50:50) (Corning, Cellgro-Mediatech) supplemented with 10% heat-inactivated fetal bovine serum (Corning, Cellgro-Mediatech), 1% Penicillin/Streptomycin (Corning, Cellgro-Mediatech) and 2 mmol/L-glutamax (Life Technology).\n(§2) A mixture of fluoresecent-labeled parental CHO cells and unlabeled CHO-hFOLRlcells were prepared as follows. Parental CHO cells were washed twice in PBS and incubated in PBS containing with 1 nM CellTrace™ Oregon Green488® (Life Technologies) at 37° C. for 30 minutes. Labeled parental CHO cells were then washed 2× with Ham's F-12 media and 2× with FACS buffer (PBS with 1% bovine serum albumin). Unlabeled CHO-hFOLR1 cells were similarly washed and prepared. Labeled parental CHO and unlabeled CHO-hFOLR1 cells were combined at 1:1 ratio and seeded at 50 μL per well (200,000 cells per well) in 96 well polypropylene plates. Cells were mixed with 50 μL of test antibodies (i.e., anti-FOLR1 variants) serially diluted in FACS buffer and incubated on ice for 60 mins. […] Data were analyzed using FlowJo® software (FlowJo, LLC; Ashland, OR) to determine mean fluorescence intensities. Binding constants were calculated using the statistical software, GraphPad Prism (GraphPad Software; La Jolla, CA) using the nonlinear regression equation, one site-specific binding with Hill slope. Secondary antibody alone was used as a control, in addition to measuring non-specific antibody binding to CHO parental cells."}
{"binder": "B1", "Bmax (MFI)": 22000, "Kd": 0.86}
{"binder": "B2", "Bmax (MFI)": 22400, "Kd": 0.96}
{"binder": "B3", "Bmax (MFI)": 21300, "Kd": 0.65}
{"binder": "B4", "Bmax (MFI)": 15200, "Kd": 0.35}
{"binder": "B5", "Bmax (MFI)": 28000, "Kd": 0.61}
{"binder": "B6", "Bmax (MFI)": 24300, "Kd": 0.92}
{"binder": "B7", "Bmax (MFI)": 18100, "Kd": 0.23}
{"binder": "B8", "Bmax (MFI)": 25700, "Kd": 2.84}
{"binder": "B9", "Bmax (MFI)": 16000, "Kd": 0.27}
{"binder": "B10", "Bmax (MFI)": 20600, "Kd": 0.52}
{"binder": "B11", "Bmax (MFI)": 22200, "Kd": 0.45}
{"biological_target": "T2, human folate receptor alpha (hFOLR1) (human, UniProt P15328 25-234)", "T2 construct": "endogenous on FOLR1-positive KB and Igrov1 cells (cell killing); also called human FolR1; FolRα", "T2 sequence (P15328 25-234 limits assumed)": "as the sequence (P15328 other isoform, or with tags, fused parts or gaps limits assumed) above, with T2I, R4W, K37R, R117Q, P146A, Y171H counted along it", "assay": "FACS, CHO-hFOLR1 cells;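 further: flow cytometry of serially diluted antibodies binding CHO cells stably expressing the receptor, 60 min on ice, mixed with dye-tagged parental CHO as background control, one-site specific fit with Hill slope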", "units": {"Bmax (MFI)": "MFI", "Kd": "nM"}, "method": "as §1, §2"}
{"binder": "B1", "Bmax (MFI)": 26300, "Kd": 0.44}
{"binder": "B2", "Bmax (MFI)": 26400, "Kd": 1.01}
{"binder": "B3", "Bmax (MFI)": 25000, "Kd": 0.46}
{"binder": "B4", "Bmax (MFI)": 26800, "Kd": 0.52}
{"binder": "B5", "Bmax (MFI)": 28800, "Kd": 0.6}
{"binder": "B6", "Bmax (MFI)": 25700, "Kd": 0.77}
{"binder": "B7", "Bmax (MFI)": 28800, "Kd": 0.62}
{"binder": "B8", "Bmax (MFI)": 29300, "Kd": 2.21}
{"binder": "B9", "Bmax (MFI)": 27500, "Kd": 0.91}
{"binder": "B10", "Bmax (MFI)": 26500, "Kd": 0.48}
{"binder": "B11", "Bmax (MFI)": 26700, "Kd": 0.57}
{"biological_target": "T2, human folate receptor alpha (hFOLR1)", "assay": "cell-based or functional assay", "units": {"Igrov, 2° Antibody Cell Killing, Nb-SC239: EC50": "nM", "Igrov, 2° Antibody Cell Killing, Nb-SC239: Span": "%", "KB, 2° Antibody Cell Killing, Nb-239: EC50": "nM", "KB, 2° Antibody Cell Killing, Nb-239: Span": "%"}}
{"binder": "B1", "Igrov, 2° Antibody Cell Killing, Nb-SC239: EC50": 0.016, "Igrov, 2° Antibody Cell Killing, Nb-SC239: Span": 68, "KB, 2° Antibody Cell Killing, Nb-239: EC50": 0.006, "KB, 2° Antibody Cell Killing, Nb-239: Span": 94}
{"binder": "B2", "Igrov, 2° Antibody Cell Killing, Nb-SC239: EC50": 0.029, "Igrov, 2° Antibody Cell Killing, Nb-SC239: Span": 72, "KB, 2° Antibody Cell Killing, Nb-239: EC50": 0.088, "KB, 2° Antibody Cell Killing, Nb-239: Span": 92}
{"binder": "B3", "Igrov, 2° Antibody Cell Killing, Nb-SC239: EC50": 0.023, "Igrov, 2° Antibody Cell Killing, Nb-SC239: Span": 70, "KB, 2° Antibody Cell Killing, Nb-239: EC50": 0.042, "KB, 2° Antibody Cell Killing, Nb-239: Span": 91}
{"binder": "B4", "Igrov, 2° Antibody Cell Killing, Nb-SC239: EC50": 0.021, "Igrov, 2° Antibody Cell Killing, Nb-SC239: Span": 62, "KB, 2° Antibody Cell Killing, Nb-239: EC50": 0.073, "KB, 2° Antibody Cell Killing, Nb-239: Span": 92}
{"binder": "B5", "Igrov, 2° Antibody Cell Killing, Nb-SC239: EC50": 0.027, "Igrov, 2° Antibody Cell Killing, Nb-SC239: Span": 71, "KB, 2° Antibody Cell Killing, Nb-239: EC50": 0.034, "KB, 2° Antibody Cell Killing, Nb-239: Span": 93}
{"binder": "B6", "Igrov, 2° Antibody Cell Killing, Nb-SC239: EC50": 0.032, "Igrov, 2° Antibody Cell Killing, Nb-SC239: Span": 71, "KB, 2° Antibody Cell Killing, Nb-239: EC50": 0.075, "KB, 2° Antibody Cell Killing, Nb-239: Span": 94}
{"binder": "B7", "Igrov, 2° Antibody Cell Killing, Nb-SC239: EC50": 0.013, "Igrov, 2° Antibody Cell Killing, Nb-SC239: Span": 67, "KB, 2° Antibody Cell Killing, Nb-239: EC50": 0.065, "KB, 2° Antibody Cell Killing, Nb-239: Span": 93}
{"binder": "B8", "Igrov, 2° Antibody Cell Killing, Nb-SC239: EC50": 0.068, "Igrov, 2° Antibody Cell Killing, Nb-SC239: Span": 77, "KB, 2° Antibody Cell Killing, Nb-239: EC50": 0.38, "KB, 2° Antibody Cell Killing, Nb-239: Span": 97}
{"binder": "B9", "Igrov, 2° Antibody Cell Killing, Nb-SC239: EC50": 0.036, "Igrov, 2° Antibody Cell Killing, Nb-SC239: Span": 75, "KB, 2° Antibody Cell Killing, Nb-239: EC50": 0.057, "KB, 2° Antibody Cell Killing, Nb-239: Span": 96}
{"binder": "B10", "Igrov, 2° Antibody Cell Killing, Nb-SC239: EC50": 0.012, "Igrov, 2° Antibody Cell Killing, Nb-SC239: Span": 54, "KB, 2° Antibody Cell Killing, Nb-239: EC50": 0.016, "KB, 2° Antibody Cell Killing, Nb-239: Span": 90}
{"binder": "B11", "Igrov, 2° Antibody Cell Killing, Nb-SC239: Span": 73, "KB, 2° Antibody Cell Killing, Nb-239: EC50": 0.055, "KB, 2° Antibody Cell Killing, Nb-239: Span": 92}
{"biological_target": "T3, murine folate receptor alpha (mouse, UniProt P35846 25-232)", "T3 construct": "Expressed on the surface of stably transfected CHO cells; also called mouse FolR1; CHO-mouse FolR1", "T3 sequence (P35846 25-232 limits assumed)": "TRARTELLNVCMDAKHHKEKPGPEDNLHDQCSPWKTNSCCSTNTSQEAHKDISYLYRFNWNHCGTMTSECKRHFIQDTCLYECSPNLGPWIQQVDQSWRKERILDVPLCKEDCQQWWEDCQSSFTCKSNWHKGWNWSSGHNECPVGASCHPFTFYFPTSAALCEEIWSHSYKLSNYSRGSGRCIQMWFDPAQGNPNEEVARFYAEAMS", "assay": "FACS, CHO-mFOLR1 cells;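 further: flow cytometry binding of serially diluted test antibodies to transfected CHO cells on ice, mean fluorescence intensity, parental CHO cells give background, Kd from one-site specific binding fit with Hill slope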", "units": {"Bmax (MFI)": "MFI", "Kd": "nM"}}
{"binder": "B1", "Bmax (MFI)": 2510, "Kd": 62}
{"binder": "B2", "binding result": "no binding"}
{"binder": "B3", "binding result": "no binding"}
{"binder": "B4", "Bmax (MFI)": 4130, "Kd": 4.8}
{"binder": "B5", "Bmax (MFI)": 916, "Kd": 87}
{"binder": "B6", "binding result": "no binding"}
{"binder": "B7", "Bmax (MFI)": 3170, "Kd": 1.4}
{"binder": "B8", "binding result": "no binding"}
{"binder": "B9", "Bmax (MFI)": 2330, "Kd": 5.6}
{"binder": "B10", "Bmax (MFI)": 1860, "Kd": 13}
{"binder": "B11", "Bmax (MFI)": 1360, "Kd": 14}
